The text below walks through data of US20180335433A1, “COMPOSITIONS TARGETING PKC-THETA AND USES AND METHODS OF TREATING PKC-THETA PATHOLOGIES, ADVERSE IMMUNE RESPONSES AND DISEASES” (La Jolla Institute for Allergy and Immunology, priority 2011, published 2018).

For test [1], the system named is Naïve CD4+ T cells from B6 mice, Treg (FoxP3+) cells. In words: In vitro Treg (FoxP3+) differentiation of retrovirally transduced CD4+ T cells. In kind it is cell-based, mouse. The settings on record: Treg-polarizing conditions (IL-2+TGFβ), GFP+FoxP3+ cells. The method, then: Naïve CD4+ T cells from B6 mice stimulated with anti-CD3 plus anti-CD28 mAbs and differentiated in vitro under Treg-polarizing conditions (IL-2+TGFβ) were retrovirally transduced with empty pMIG vector, or with the indicated PKCθ V3 vectors. Transduced (GFP+) cells were sorted and FoxP3+ cells were analyzed by intracellular staining.
Naïve CD4^+ T cells from B6 mice stimulated with anti-CD3 plus anti-CD28 mAbs and differentiated in vitro under Treg-polarizing conditions (IL-2+TGFβ) were retrovirally transduced with empty pMIG vector, or with the indicated PKCθ V3 vectors. Transduced (GFP+) FoxP3+ cells were analyzed by intracellular staining 8 hours after restimulation. Right panels represent cumulative data showing percentage of GFP+FoxP3+ cells by intracellular staining.

The test system of test [2] is Th2-mediated lung inflammation. In words: Th2-mediated Ova-induced airway inflammation after adoptive transfer of transduced OT-II Th2 cells. It is filed as in vivo, mouse. The settings on record: transferred Th2 cells, aerosolized Ova 3 consecutive days. An excerpt:
(FIG. 7A-7D) OT-II CD4^+ T cells stimulated with anti-CD3 plus anti-CD28 mAbs and differentiated in vitro under Th2 (FIG. 7A-7C) or Th1 (FIG. 7D, 7E)-polarizing conditions were retrovitrally transduced with the same PKCθ V3 vectors as in FIG. 6. Sorted GFP^+ populations were adoptively transferred into naïve B6 mice, which were challenged with aerosolized Ova for 3 consecutive days. BAL fluid were obtained 1 d post-challenge and analyzed for total mononuclear cell infiltration (FIG. 7A, 7D) and cytokine expression using IL-4 (FIG. 7B), IL-5 (FIG. 7C) and IFN-γ (FIG. 7E) ELISA.
CD4^+ T cells from OT-II B6 mice were isolated and cultured with plate-bound anti-CD3 (5 μg/ml), soluble anti-CD28 (2.5 μg/ml) and IL-2 (100 U/ml) under Th1 or Th2 polarizing conditions. The cells were retrovirally infected on days 2-4 and cultured for an additional 3 days. GFP^+ cells were sorted, and 1×10^6 cells were injected intravenously into naïve WT B6 mice. One day later, mice received aerosolized Ova (5 mg/ml in 20 ml PBS) for 30 min, once a day for 3 consecutive days, using ultrasonic nebulization. Mice were sacrificed 24 h after the last challenge and assessed for lung inflammation. Collection of BAL fluid and determination of cytokine levels were carried out as described (Salek-Ardakani, S. et al. J Immunol 173, 6440-6447 (2004)).
The above findings were extended to an in vivo antigen-specific inflammatory response in an airway inflammation model, using a T cell adoptive transfer system. Mice receiving OT-II Th2 cells transduced with an empty vector developed an inflammatory response by comparison with PBS-challenged control mice, as evidenced by a significant increase in the number of infiltrating leukocytes in the bronchoalveolar lavages (BAL) fluid (FIG. 7a) and in the levels of signature Th2 cytokines, IL-4 (FIG. 7b) and IL-5 (FIG. 7c).

A further test concerns endogenous PKCθ. In words: IS localization in OT-II CD4+ T cells conjugated with Ova-loaded APCs (confocal). In kind it is cell-based, mouse. The settings on record: OT-II TCR-Tg CD4+ T cells. On the procedure:
(FIG. 6A) OT-II CD4^+ T cells were infected with retrovirus expressing Myc-tagged V3 domain, V3 mutated at P330/1/4/6A (V3-4PA), or PR motif-deleted V3 (V3-ΔPR). Infected cells (green) were harvested, stimulated, and fixed. Conjugates were stained with anti-Myc plus a secondary Alexa 555-coupled antibody (orange), and anti-PKCθ plus a secondary Alexa 647-coupled antibody (red). Cells were analyzed as in FIG. 1A. (FIG. 6B) Quantitative analysis of the results shown in (FIG. 6A) from 30-50 T-APC conjugates. ** p<0.05. (FIG. 6C) MCC-specific T hybridoma cells were cotransfected with indicated vector, together with RE/AP-Luc and β-Gal reporter plasmids. Cells were stimulated and analyzed as in FIG. 1C. (FIG. 6D) Naïve CD4^+ T cells from B6 mice stimulated with anti-CD3 plus anti-CD28 mAbs and differentiated in vitro under Th1-, Th2- or Th17-polarizing conditions were retrovirally transduced with empty pMIG vector, or with the indicated PKCθ V3 vectors. Cytokine-producing cells were analyzed by intracellular staining 8 h after restimulation. Right panels represent cumulative data showing percentage of cytokine-producing cells by intracellular staining. (FIG. 6E) MCC-specific T hybridoma cells were cotransfected with the indicated plasmids, together with NFAT luciferase reporter and a β-Gal reporter plasmid. Cells were incubated with fibroblasts that express I-E^K and B7-1 in the absence or presence of MCC peptide for 6 hrs. Normalized luciferase activity was determined in triplicates.
Full-length human PKCθ and its derivatives were cloned as a GFP fusion protein in the pMX retroviral vector. Retroviral supernatants were used to infect preactivated CD4^+ T cells from PKCθ^−/− or WT OT-II mice. Transduced cells were rested for an additional three days. On the day of experiment, APC were prepared from WT B6 splenocytes that were depleted of CD4^+ T cells using anti-CD4 (L3T4) mAb-coated beads. T-depleted APC were stained with 20 μM of cell tracker blue (CMAC) and then pulsed with 5 μM Ova peptide, respectively, for 30 min at 37° C. T cell-APC conjugation was carried out at 37° C. for 20 min before fixation with 4% paraformaldehyde and permeabilization with PBS supplemented with 1% BSA and 0.1% Triton X-100. […] Immunofluorescene images were captured using a Marianas digital fluorescence-microscopy system (Intelligent Imaging Innovations) as described (Becart, S. et al. Immunity 29, 704-719 (2008)).
Given the critical role of the PKCθ V3 domain in the enzyme's CD28 association, IS localization, and activation of downstream targets, ectopic expression of the isolated V3 domain was analyzed for interference with the localization and function of PKCθ in stimulated T cells. […]

B1: V3-4PA: V3 mutated at P330/1/4/6A (4 Pro residues in the Pro-rich motif to Ala) (protein)
chain: MSPFLRIGLSNFDCGSCQSCQGEAVNPYCAVLVKEYVESENGQMYIQKKPTMYPPWDSTFDAHINKGRVMQIIVKGKNVDLISETTVELYSLAERCRKNNGKTEIWLELKPQGRMLMNARYFLEMSDTKDMNEFETEGFFALHQRRGAIKQAKVHHVKCHEFTATFFPQPTFCSVCHEFVWGLNKQGYQCRQCNAAIHKKCIDKVIAKCTGSAINSRETMFHKERFKIDMPHRFKVYNYKSPTFCEHCGTLLWGLARQGLKCDACGMNVHHRCQTKVANLCGINQKLMAEALAMIESTQQARCLRDTEQIFREGPVEIGLPCSIKNEARAACLATAGKREPQGISWESPLDEVDKMCHLPEPELNKERPSLQIKLKIEDFILHKMLGKGSFGKVFLAEFKKTNQFFAIKALKKDVVLMDDDVECTMVEKRVLSLAWEHPFLTHMFCTFQTKENLFFVMEYLNGGDLMYHIQSCHKFDLSRATFYAAEIILGLQFLHSKGIVYRDLKLDNILLDKDGHIKIADFGMCKENMLGDAKTNTFCGTPDYIAPEILLGQKYNHSVDWWSFGVLLYEMLIGQSPFHGQDEEELFHSIRMDNPFYPRWLEKEAKDLLVKLFVREPEKRLGVRGDIRQHPLFREINWEELERKEIDPPFRPKVKSPFDCSNFDKEFLNEKPRLSFADRALINSMDQNMFRNFSFMNPGMERLIS
For the molecule B1, in test [1], the “promotion of Treg differentiation” value was “not”. In addition, the “inhibition of the Th2 inflammatory response” value in test [2] was “partially rescued the inhibition”. Further, in the test on endogenous PKCθ, the “effect on IS localization of endogenous PKCθ” value is given as “did not interfere with the IS localization of endogenous PKCθ” and the “subcellular localization of the transduced V3 protein” value is listed as “did not localize anymore in the IS”.
